Laboratory results reported in PMC4585563, “Small angle X-ray scattering studies of CTNNBL1 dimerization and CTNNBL1/CDC5L complex” (Scientific Reports, 2015).
Substitutions are numbered along the chain they refer to. Numbers in names are those of the source.

B1: CTNNBL1 (residues 77-563), wild type (domain or fragment, human, UniProt Q8WYA6 77-563, looked up)
chain: LDESSVKKMILTFEKRSYKNQELRIKFPDNPEKFMESELDLNDIIQEMHVVATMPDLYHLLVELNAVQSLLGLLGHDNTDVSIAVVDLLQELTDIDTLHESEEGAEVLIDALVDGQVVALLVQNLERLDESVKEEADGVHNTLAIVENMAEFRPEMCTEGAQQGLLQWLLKRLKAKMPFDANKLYCSEVLAILLQDNDENRELLGELDGIDVLLQQLSVFKRHNPSTAEEQEMMENLFDSLCSCLMLSSNRERFLKGEGLQLMNLMLREKKISRSSALKVLDHAMIGPEGTDNCHKFVDILGLRTIFPLFMKSPRKIKKVGTTEKEHEEHVCSILASLLRNLRGQQRTRLLNKFTENDSEKVDRLMELHFKYLGAMQVADKKIEGEKHDMVRRGEIIDNDTEEEFYLRRLDAGLFVLQHICYIMAEICNANVPQIRQRVHQILNMRGSSIKIVRHIIKEYAENIGDGRSPEFRENEQKRILGLLENF
notes: human CTNNBL1, residues 77-563, amplified from a human cDNA library; Dimer by SAXS at 0-200 mM NaCl and by SEC at 150 mM NaCl; monomer at 300-400 mM NaCl; also called native CTNNBL1; wild-type CTNNBL1; source: E. coli BL21(DE3)-T1R, purified (Ni-NTA, TEV protease, Ni-NTA, Superdex200); not shown: 6xHis, N-terminal, cleaved; VHb (bacterial hemoglobin), N-terminal, cleaved
B2: CDC5L^197-285 (domain or fragment, human, UniProt Q99459 197-285, looked up)
chain: EIQKKRKRKRGVDYNAEIPFEKKPALGFYDTSEENYQALDADFRKLRQQDLDGELRSEKEGRDRKKDKQHLKRKKESDLPSAILQTSGV
notes: CDC5L of the human hPrp19/CDC5L complex, residues 197-285; holds NLS3 (residues 200-206: KKRKRKR); cloned into pPosKJ; pPosKJ adds 6xHis and VHb, both removed only by TEV protease; the His-tagged proteins were made without TEV, so VHb should still be on the chain in the pull-down; also called 6xHis-tagged CDC5L 197-285; source: E. coli, purified as CTNNBL1 with 300 mM NaCl in the buffers, without …
B3: CDC5L^141-285 (domain or fragment, human, UniProt Q99459 141-285, looked up)
chain: PIDMDEDELEMLSEARARLANTQGKKAKRKAREKQLEEARRLAALQKRRELRAAGIEIQKKRKRKRGVDYNAEIPFEKKPALGFYDTSEENYQALDADFRKLRQQDLDGELRSEKEGRDRKKDKQHLKRKKESDLPSAILQTSGV
notes: CDC5L of the human hPrp19/CDC5L complex, residues 141-285; holds NLS3 (residues 200-206: KKRKRKR); cloned into pET-30a(+); also called 6xHis-tagged CDC5L 141-285; source: E. coli, purified as CTNNBL1 with 300 mM NaCl in the buffers, without TEV protease
B4: CDC5L^141-377 (domain or fragment, human, UniProt Q99459 141-377, looked up)
chain: PIDMDEDELEMLSEARARLANTQGKKAKRKAREKQLEEARRLAALQKRRELRAAGIEIQKKRKRKRGVDYNAEIPFEKKPALGFYDTSEENYQALDADFRKLRQQDLDGELRSEKEGRDRKKDKQHLKRKKESDLPSAILQTSGVSEFTKKRSKLVLPAPQISDAELQEVVKVGQASEIARQTAEESGITNSASSTLLSEYNVTNNSVALRTPRTPASQDRILQEAQNLMALTNVDT
notes: CDC5L of the human hPrp19/CDC5L complex, residues 141-377 of the N-terminal domain; holds NLS3 (residues 200-206: KKRKRKR); cloned into pET-30a(+); also called 6xHis-tagged CDC5L 141-377; source: E. coli, purified as CTNNBL1 with 300 mM NaCl in the buffers, without TEV protease
B5: CDC5L^141-235 (domain or fragment, human, UniProt Q99459 141-235, looked up)
chain: PIDMDEDELEMLSEARARLANTQGKKAKRKAREKQLEEARRLAALQKRRELRAAGIEIQKKRKRKRGVDYNAEIPFEKKPALGFYDTSEENYQAL
notes: CDC5L of the human hPrp19/CDC5L complex, residues 141-235; holds NLS3 (residues 200-206: KKRKRKR); cloned into pPosKJ; pPosKJ adds 6xHis and VHb, both removed only by TEV protease; the His-tagged proteins were made without TEV, so VHb should still be on the chain in the pull-down; also called 6xHis-tagged CDC5L 141-235; source: E. coli, purified as CTNNBL1 with 300 mM NaCl in the buffers, without …
B6: CTNNBL1^Q199R (domain or fragment, human, UniProt Q8WYA6 77-563, looked up)
chain: B1 chain with Q123R
notes: human CTNNBL1, residues 77-563, point mutant made by site-directed mutagenesis; source: E. coli, purified as wild-type CTNNBL1; not shown: 6xHis, N-terminal, cleaved; VHb (bacterial hemoglobin), N-terminal, cleaved
B7: CTNNBL1^E282A (domain or fragment, human, UniProt Q8WYA6 77-563, looked up)
chain: B1 chain with E206A
notes: as for B6
B8: CTNNBL1^Q192R (domain or fragment, human, UniProt Q8WYA6 77-563, looked up)
chain: B1 chain with Q116R
notes: as for B6
B9: CTNNBL1^G148R (domain or fragment, human, UniProt Q8WYA6 77-563, looked up)
chain: B1 chain with G72R
notes: as for B6
B10: CTNNBL1^I101R (domain or fragment, human, UniProt Q8WYA6 77-563, looked up)
chain: B1 chain with I25R
notes: as for B6
B11: CTNNBL1^E278A (domain or fragment, human, UniProt Q8WYA6 77-563, looked up)
chain: B1 chain with E202A
notes: as for B6
B12: CTNNBL1^G148R/Q192R/Q199R (domain or fragment, human, UniProt Q8WYA6 77-563, looked up)
chain: B1 chain with G72R, Q116R, Q123R
notes: human CTNNBL1, residues 77-563, triple-point mutant (ARM I and ARM II); also called ARM I and ARM II mutant; source: E. coli, purified as wild-type CTNNBL1; not shown: 6xHis, N-terminal, cleaved; VHb (bacterial hemoglobin), N-terminal, cleaved
B13: CTNNBL1^L87R/I101R (domain or fragment, human, UniProt Q8WYA6 77-563, looked up)
chain: B1 chain with L11R, I25R
notes: human CTNNBL1, residues 77-563, double-point mutant (capping region); also called capping region mutant; source: E. coli, purified as wild-type CTNNBL1; not shown: 6xHis, N-terminal, cleaved; VHb (bacterial hemoglobin), N-terminal, cleaved
B14: CTNNBL1^L87R (domain or fragment, human, UniProt Q8WYA6 77-563, looked up)
chain: B1 chain with L11R
notes: as for B6
B15: CTNNBL1^Q238A/E278A/E282A (domain or fragment, human, UniProt Q8WYA6 77-563, looked up)
chain: B1 chain with Q162A, E202A, E206A
notes: human CTNNBL1, residues 77-563, triple-point mutant (ARM III and ARM IV); also called Arm III and Arm IV mutant; source: E. coli, purified as wild-type CTNNBL1; not shown: 6xHis, N-terminal, cleaved; VHb (bacterial hemoglobin), N-terminal, cleaved

Target: the molecule itself
Assay: SAXS; CTNNBL1 alone in solution, 200 mM NaCl, 4 °C, 1.0-5.0 mg/ml; oligomeric state from molecular mass (absolute I(0)), Guinier and p(r) analysis
Conditions: not given

| Binder | stoichiometry N |
| --- | --- |
| B1 | 2 |

Target: the molecule itself
Assay: SAXS; CTNNBL1 alone in solution, 0 mM NaCl, 4 °C, 1.0-5.0 mg/ml; oligomeric state from molecular mass (absolute I(0)), Guinier and p(r) analysis
Conditions: not given

| Binder | stoichiometry N |
| --- | --- |
| B1 | 2 |

target: B1; assay: pull-down; 6xHis-tagged CDC5L truncations mixed with untagged CTNNBL1 in 50 mM Tris-HCl pH 8.0, 300 mM NaCl, dialysed against 50 mM Tris-HCl without NaCl at 4 °C overnight, loaded on Ni-NTA resin, washed with 10 mM imidazole, eluted with 300 mM imidazole, SDS-PAGE; conditions: both partners purified

| Binder | binding result |
| --- | --- |
| B2 | binds |
| B3 | binds |
| B4 | binds |
| B5 | binds |

Target: the molecule itself
Assay: SEC; Superdex 200 10/300, 500 μl of 2 mg/ml protein, 0.5 ml/min, 40 mM Tris-HCl pH 8.0, 150 mM NaCl; molecular weight from calibration standards
Conditions: not given

| Binder | stoichiometry N |
| --- | --- |
| B6 | 2 |
| B7 | 2 |
| B8 | 2 |
| B9 | 2 |
| B10 | 2 |
| B11 | 2 |
| B12 | 2 |
| B13 | 2 |
| B14 | 2 |
| B15 | 2 |

Target: the molecule itself
Assay: SAXS; CTNNBL1 alone in solution, 100 mM NaCl, 4 °C, 1.0-5.0 mg/ml; oligomeric state from molecular mass (absolute I(0)), Guinier and p(r) analysis
Conditions: not given

| Binder | stoichiometry N |
| --- | --- |
| B1 | 2 |

Target: the molecule itself
Assay: SEC; CDC5L truncations alone; data not shown
Conditions: not given

| Binder | stoichiometry N |
| --- | --- |
| B3 | 2 |
| B4 | 2 |
